Test results from KR20170021349A, “다양한 질병의 치료를 위한 jnk 신호 전달 경로의 세포 투과성 펩타이드 억제자의 새로운 용도” (자이겐 인플라메이션 리미티드, priority 2014, dated 2017).

Assays:
Jurkat cells = experiment: PMA & ionomycin-induced cytokine production; assay type: cell-based; conditions: Fig. 27 D-F
Wistar rats = experiment: Puromycin aminonucleoside (PAN)-induced nephropathy, 56 days; assay type: in vivo, rat
[1] = Phase II trial, post-surgery intraocular inflammation, vs dexamethasone eye drops; assay type: in vivo, human
[2] = Ocular pharmacokinetics after single and repeated subconjunctival administration; assay type: in vivo, rabbit
primary macrophages = experiment: Uptake into primary cultured macrophages (specific antibody); assay type: cell-based; conditions: Fig. 24
[3] = system: Sprague-Dawley albino rats; experiment: Light-induced photoreceptor damage (AMD model), ERG and ONL thickness; assay type: in vivo, rat; conditions: for ONL thickness: p<0.05 vs vehicle

Substance: NH2-DQSRPVQPFLNLTTPRKPRPPRRRQRRKKRG-COOH (H-DQSRPVQPFLNLTTPRKPRPPRRRQRRKKRG-OH; also: D-amino acids (positions not given here)) [XG-102]
- PMA & ionomycin-induced IFNg, IL-6, IL-2 production (Jurkat cells): 사이토카인 방출을 억제한다
- effect on PAN-induced glomerulosclerosis (Wistar rats; 1 mg/kg, 7 weekly i.v. injections): 효과가 없었다
- effect on PAN-induced glomerulosclerosis (Wistar rats; 4 mg/kg, 4 i.v. injections from day 21): 강한 효과를 초래하였다
- PAN-induced glomerulosclerosis (Wistar rats; 7 weekly i.v. injections, 2 and 4 mg/kg): 용량 의존적으로 현저하게 감소시키는
- decrease in plasma LDL (Wistar rats; especially 4 mg/kg groups): 현저하는 않더라도 관찰되었다
- effect on body weight vs PAN/saline (Wistar rats; rat, in vivo): 관찰되지 않았다
- AEs leading to interruption of study treatment, events (%) ([1]; 90 μg): 11 (14.1%)
- mild AEs, number of events (% of reported events) ([1]; 90 μg): 55 (70.5%)
- moderate AEs, number of events (%) ([1]; 90 μg): 6 (7.7%)
- patients with an AE within 24 h of administration ([1]; 90 μg): 34%
- patients with intraocular pressure increased ([1]; 90 μg): 23%
- severe AEs, number of events (%) ([1]; 90 μg): 17 (21.7%)
- SOC eye disorders, patients ([1]; 90 μg (26 patients), p=0.025 vs dexamethasone): 55%
- premature withdrawal of study eye drops, patients (%) ([1]; 90 μg (N=47)): 10 (21.3%)
- overall tolerability ([1]; 90 μg and 900 μg): 내약성이 우수하였다
- anterior chamber cell grade vs dexamethasone, days 7 and 14 ([1]; 90 μg and 900 μg, FAS): 통계적으로 현저한 차이가 없었다
- anterior chamber flare grade vs dexamethasone, days 7, 14, 28 ([1]; 90 μg and 900 μg, FAS): 통계적으로 현저한 차이가 없었다
- difference in anterior chamber cell grade vs dexamethasone, day 28 ([1]; 90 μg single subconj. inj., PP, 95% CI -0.214-0.385, p=0.003): 0.086
- patients with an adverse event ([1]; 90 μg, 31/47): 66%
- difference in anterior chamber cell grade vs dexamethasone, day 28 ([1]; 90 μg, FAS, 95% CI -0.215-0.321, p<0.001): 0.053
- odds of cleared ocular inflammation vs usual treatment group ([1]; 90 μg, FAS, day 7): 0.52
- odds of cleared ocular inflammation vs usual treatment group ([1]; 90 μg, FAS, day 14): 0.85
- odds of cleared ocular inflammation vs usual treatment group ([1]; 90 μg, FAS, day 28): 1.24
- odds of cleared ocular inflammation vs usual treatment group ([1]; 90 μg, PP, day 7): 0.56
- odds of cleared ocular inflammation vs usual treatment group ([1]; 90 μg, PP, day 14): 0.97
- odds of cleared ocular inflammation vs usual treatment group ([1]; 90 μg, PP, day 28): 1.45
- patients with rescue medication introduced ([1]; 90 μg, p=0.013 vs dexamethasone): 21.3%
- AEs leading to interruption of study treatment, events (%) ([1]; 900 μg): 8 (11.6%)
- mild AEs, number of events (%) ([1]; 900 μg): 49 (71.0%)
- moderate AEs, number of events (%) ([1]; 900 μg): 12 (17.4%)
- patients with an AE within 24 h of administration ([1]; 900 μg): 27%
- patients with intraocular pressure increased ([1]; 900 μg): 10%
- severe AEs, number of events (%) ([1]; 900 μg): 8 (11.6%)
- SOC eye disorders, patients ([1]; 900 μg (24 patients)): 50%
- premature withdrawal of study eye drops, patients (%) ([1]; 900 μg (N=48)): 8 (16.7%)
- difference in anterior chamber cell grade vs dexamethasone, day 28 ([1]; 900 μg single subconj. inj., PP, 95% CI -0.350-0.242, non-inferior p<0.001): -0.054
- patients with an adverse event ([1]; 900 μg, 32/48): 67%
- difference in anterior chamber cell grade vs dexamethasone, day 28 ([1]; 900 μg, FAS, 95% CI -0.301-0.238, p<0.001): -0.032
- odds of cleared ocular inflammation vs usual treatment group ([1]; 900 μg, FAS, day 7): 0.76
- odds of cleared ocular inflammation vs usual treatment group ([1]; 900 μg, FAS, day 14): 1.25
- odds of cleared ocular inflammation vs usual treatment group ([1]; 900 μg, FAS, day 28): 1.13
- odds of cleared ocular inflammation vs usual treatment group ([1]; 900 μg, PP, day 7): 0.84
- odds of cleared ocular inflammation vs usual treatment group ([1]; 900 μg, PP, day 14): 1.12
- odds of cleared ocular inflammation vs usual treatment group ([1]; 900 μg, PP, day 28): 1.26
- patients with rescue medication introduced ([1]; 900 μg, not significant vs dexamethasone): 14.6%
- presence in choroid, bulbar conjunctiva, iris-ciliary body ([2]; 7 days after administration): 여전히 존재함
- detection in plasma ([2]; rabbit, in vivo): 항상 검출되지 않았다
- incorporation into primary macrophages (primary macrophages): 강하게 병합된다
- b-wave recovery (% of baseline) ([3]; 1.5 μg/eye IVT, day 9): 55.3%
- a-wave recovery (% of baseline) ([3]; 1.5 μg/eye IVT, day 16): 47.5%
- b-wave recovery (% of baseline) ([3]; 1.5 μg/eye IVT, day 16): 61.7%
- a-wave recovery (% of baseline) ([3]; 1.5 μg/eye IVT, day 23): 48.3%
- b-wave recovery (% of baseline) ([3]; 1.5 μg/eye IVT, day 23): 73.5%
- ONL thickness loss (% vs non-induced control eyes) ([3]; 1.5 μg/eye ivt): 39%
- ONL thickness ([3]; 1.5 μg/eye ivt, day 23): 24.89 ± 4.01 μm
- b-wave recovery (% of baseline) ([3]; 15 μg/eye IVT, day 9): 60.6%
- a-wave recovery (% of baseline) ([3]; 15 μg/eye IVT, day 16): 51.1%
- b-wave recovery (% of baseline) ([3]; 15 μg/eye IVT, day 16): 62.3%
- a-wave recovery (% of baseline) ([3]; 15 μg/eye IVT, day 23): 41.8%
- b-wave recovery (% of baseline) ([3]; 15 μg/eye IVT, day 23): 56.5%
- ONL thickness loss (% vs non-induced control eyes) ([3]; 15 μg/eye ivt): 40%
- ONL thickness ([3]; 15 μg/eye ivt, day 23): 24.42 ± 5.99 μm
- a-wave recovery (% of baseline) ([3]; 150 μg/eye IVT, day 9 (vehicle 5.7)): 23.6%
- b-wave recovery (% of baseline) ([3]; 150 μg/eye IVT, day 9 (vehicle 15)): 31.9%
- a-wave recovery (% of baseline) ([3]; 150 μg/eye IVT, day 16 (vehicle 13.2)): 24.1%
- b-wave recovery (% of baseline) ([3]; 150 μg/eye IVT, day 16 (vehicle 24.8)): 38.9%
